“And” between values parts separate entries of the source, which are not always exact repeats. Identical values can stand only once.

The target in experiment [1] is T1, Lectin/EGF fragment from E-selectin (UniProt P16581 22-178, limits assumed).
T1 construct: domain: Lectin/EGF fragment; Soluble fragment; also called lectin/EGF fragment of E-selectin
T1 sequence (looked up): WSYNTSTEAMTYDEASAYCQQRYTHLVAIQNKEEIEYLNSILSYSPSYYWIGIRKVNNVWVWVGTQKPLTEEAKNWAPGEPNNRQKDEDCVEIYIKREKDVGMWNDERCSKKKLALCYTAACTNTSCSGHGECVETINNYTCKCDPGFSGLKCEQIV
As to the kind of experiment: BIAcore SPR, antibody immobilised, lectin/EGF fragment in fluid phase; average. As to the method:
(§1) The affinity of both mouse and CDR-grafted ENA-2 for E-selectin were measured using a BIAcore TH biosensor (Pharmacia). This instrument combines miniaturised fluid delivery with an optical detection system based on surface plasmon resonance, to monitor protein interactions in real time (Chaiken et al, (1991) Anal. Biochem 201 197–210). The antibodies were immobilised at similar densities onto the sensor surface and the lectin/EGF fragment of E-selectin used as antigen in the fluid phase.
(§2) Assays of both antibodies were run at the same time using the same dilutions of antigen. The KD measurements are given below. KD Measurements

Experiment [2] concerns the target T1, Lectin/EGF fragment from E-selectin. As to the kind of experiment: BIAcore SPR, antibody immobilised, lectin/EGF fragment in fluid phase; duplicate. As to the method:
as §1, §2
A general note: SPR reads the build-up and loss of mass on a sensor chip optically.

B1: CDR-grafted ENA-2 (hENA-2 wt) (antibody, V domains shown)
VH: QVQLVQSGAEVKKPGSSVKVSCKASGYTFTDHEMHWVRQAPGQGLEWIGTIDPETGGTAYNQKFKGRATLTADKSTNTAYMDLSSLRSEDTAVYYCTVLRMDYWGQGTLVTVSS
VL: DIQMTQSPSTLSASVGDRVTITCKSSQSLLNSGNQQNYLTWYQQKPGKAPKLLIYWASTRESGVPDRFTGSGSGTDFTLTISSLQPDDFAVYYCQNDYDYPLTFGQGTKVEIKR
notes: CDR-grafted on human Eu frameworks, with a human kappa light chain (pENA204); Both gamma 1 (pENA212) and gamma 4 (pENA206) heavy chain vectors were made; The FcRI comparison uses the gamma 4 wild type; also called hEN2; gamma 4
The term Kd denotes the free concentration of one partner at which half of the binding sites on the other are occupied at equilibrium, for simple one-to-one binding. As to B1, the dissociation constant Kd is 7.98 nM in experiment [1]; 7.8 nM and 8.17 nM in experiment [2].

B2: mouse ENA-2 (antibody, V domains shown)
VH: QVQLQQSGTELVRPGASVTLSCKASGYTFTDHEMHWVKQTPVLGLEWIGTIDPETGGTAYNQKFKGKATLTADKSSTTAYMDLRGLTSEDSAVFYCTVLRMDYWGQGTSLTVSA
VL: DIVMTQSPSSLTVTAGEKVTMRCKSSQSLLNSGNQQNYLTWYQQKPGQPPKLLIYWASTRESGVPDRFTGSGSGTDFTLTISSVQTEDLAVYYCQNDYDYPLTFGAGTKLEIKR
notes: Mouse IgG1/kappa whole antibody purified from hybridoma supernatant; The entries may include leader residues; also called mENA-2; murine ENA-2
B2: the Kd in experiment [1] is 5.43 nM; in experiment [2], 5.38 nM and 5.48 nM.

The record behind these values is patent US6407214 (CELLTECH THERAPEUTICS, dated 2002).
